What all share (assay): ITC; FITC-CSTN-WD2 peptide as titrant (380 uM) into wild-type or mutant KLC2^TPR-myc (44-50 uM) in the cell; 25 C; 0.1 M NaCl, 25 mM HEPES, 1 mM TCEP, pH 7.5; 2-3 experiments globally fitted with the model A + B -> AB; apparent stoichiometry Napp
(Isothermal titration calorimetry measures the heat released or taken up as one component is titrated into another.)

The target of experiment [1] is KLC2^TPR-myc (kinesin light chain 2 TPR domain, wild type, C-terminal myc tag) (mouse) (UniProt O88448).
Experiment [2] concerns the target KLC2^TPR-myc Thr^200Asp mutant (mouse) (UniProt O88448).
Experiment [3] has as its target KLC2^TPR-myc Tyr^208Ala mutant (mouse) (UniProt O88448).

*: point of attachment. FITC = O=C1OC2(c3ccc(O)cc3Oc3cc(O)ccc32)c2ccc(NC(=S)*)cc21

Experimental findings from article PMC6224480, “Insights into Kinesin-1 Activation from the Crystal Structure of KLC2 Bound to JIP3” (Structure(London, England:1993), 2018) are described below.

The stoichiometry N is a count of units in the complex or per binding partner.

{FITC}-TRQLEWDDSTL-OH [FITC-labeled CSTN(WD2) peptide (FITC-…-COOH)]: the values for the Ka in experiment [1], in experiment [2] and in experiment [3] were 820000 M⁻¹, 845000 M⁻¹ and 541000 M⁻¹, respectively. Besides, the stoichiometry N in experiment [1] came out at 0.67; in experiment [2] it was 0.71; in experiment [3], 0.67.
